Assays:
[1] = target: T1, E11 (TEV substrate clone, 5X library)
T1 chain: WESLY

[2] = target: T2, D01 (TEV substrate clone, 5X library; as in Table 5A)
T2 chain: DVQLY

[3] = target: T3, F07 (TEV substrate clone, 5X library)
T3 chain: EENLG

[4] = target: T4, H09 (TEV substrate clone, 5X library)
T4 chain: GEALF

[5] = target: T5, C3 (TEVopt library clone)
T5 chain: DLYWQG

[6] = target: T6, E6 (TEVopt library clone)
T6 chain: VLYTQG

[7] = target: T7, C6 (TEVopt library clone)
T7 chain: QLYFQS

[8] = target: T8, E05 (TEV substrate clone, 5X library)
T8 chain: RDDGY

[9] = target: T9, D07 (TEV substrate clone, 5X library)
T9 chain: REVLY

[10] = target: T10, D05 (TEV substrate clone, 5X library)
T10 chain: GEAGV

[11] = target: T11, H11 (TEV substrate clone, 5X library)
T11 chain: AEWGR

[12] = target: T12, H03 (TEV substrate clone, 5X library)
T12 chain: ARQIR

[13] = target: T13, D5 (TEVopt library clone)
T13 chain: SLYWQG

[14] = target: T14, H07 (TEV substrate clone, 5X library)
T14 chain: EEAVL

[15] = target: T15, F04 (TEV substrate clone, 5X library)
T15 chain: DRELY

[16] = target: T16, E09 (TEV substrate clone, 5X library)
T16 chain: SEPLR

[17] = target: T17, B02 (TEV substrate clone, 5X library)
T17 chain: EEELY

[18] = target: T18, D4 (TEVopt library clone)
T18 chain: LLYIQG

[19] = target: T19, E4 (TEVopt library clone)
T19 chain: SLYVQG

[20] = target: T20, C4 (TEVopt library clone)
T20 chain: ELYWQG

[21] = target: T21, A2 (TEVopt library clone)
T21 chain: DVYVQG

[22] = target: T22, F11 (TEV substrate clone, 5X library)
T22 chain: GEPLW

[23] = target: T23, C11 (TEV substrate clone, 5X library)
T23 chain: DGALY

[24] = target: T24, D01 (TEV substrate clone, 5X library; as in Table 6)
T24 chain: GEVLW

[25] = target: T25, D10 (TEV substrate clone, 5X library)
T25 chain: LYFQG

[26] = target: D03 (TEV substrate clone, 5X library)
[27] = target: T26, D04 (TEV substrate clone, 5X library)
T26 chain: GEALF

[28] = target: T27, D09 (TEV substrate clone, 5X library)
T27 chain: MEMLR

[29] = target: T28, G08 (TEV substrate clone, 5X library)
T28 chain: MEWLW

[30] = target: T29, B07 (TEV substrate clone, 5X library)
T29 chain: MEEVY

[31] = target: T30, D08 (TEV substrate clone, 5X library)
T30 chain: LEWLK

[32] = target: T31, F09 (TEV substrate clone, 5X library)
T31 chain: GEDLL

[33] = target: T32, A05 (TEV substrate clone, 5X library)
T32 chain: FEDLL

[34] = target: T33, E07 (TEV substrate clone, 5X library)
T33 chain: ETILY

[35] = target: T34, A1 (TEVopt library clone)
T34 chain: FLYLQG

[36] = target: T35, B6 (TEVopt library clone)
T35 chain: EVYVQG

[37] = target: T36, D02 (TEV substrate clone, 5X library)
T36 chain: DSELY

[38] = target: T37, C05 (TEV substrate clone, 5X library)
T37 chain: REVGY

[39] = target: T38, A3 (TEVopt library clone)
T38 chain: ALYIQG

[40] = target: T39, C09 (TEV substrate clone, 5X library)
T39 chain: RELVY

[41] = target: T40, H06 (TEV substrate clone, 5X library)
T40 chain: EEELW

[42] = target: T41, C10 (TEV substrate clone, 5X library)
T41 chain: PEVIY

[43] = target: T42, H08 (TEV substrate clone, 5X library)
T42 chain: WEPLW

[44] = target: T43, F03 (TEV substrate clone, 5X library)
T43 chain: LESLV

[45] = target: T44, G02 (TEV substrate clone, 5X library)
T44 chain: GEAGF

[46] = target: T45, C5 (TEVopt library clone)
T45 chain: ELYAQG

[47] = target: T46, B11 (TEV substrate clone, 5X library)
T46 chain: GETVY

[48] = target: T47, C07 (TEV substrate clone, 5X library)
T47 chain: VEPIY

[49] = target: Control (TEV substrate ENLYFQS)
[50] = target: T48, B09 (TEV substrate clone, 5X library)
T48 chain: LEQLI

[51] = target: T49, H04 (TEV substrate clone, 5X library)
T49 chain: MEDLM

[52] = target: T50, C04 (TEV substrate clone, 5X library)
T50 chain: RRMAE

[53] = target: T51, A06 (TEV substrate clone, 5X library)
T51 chain: FEDGL

[54] = target: T52, E01 (TEV substrate clone, 5X library)
T52 chain: EEYLW

[55] = target: T53, G03 (TEV substrate clone, 5X library)
T53 chain: GDMGY

[56] = target: E03 (TEV substrate clone, 5X library)
[57] = target: T54, D1 (TEVopt library clone)
T54 chain: WLYLQG

[58] = target: T55, G06 (TEV substrate clone, 5X library)
T55 chain: SEDLW

[59] = target: T56, F05 (TEV substrate clone, 5X library)
T56 chain: DRELY

[60] = target: T57, G05 (TEV substrate clone, 5X library)
T57 chain: LRELW

[61] = target: T58, D11 (TEV substrate clone, 5X library)
T58 chain: GEHVY

[62] = target: T59, F02 (TEV substrate clone, 5X library)
T59 chain: EEYLW

[63] = target: T60, A4 (TEVopt library clone)
T60 chain: VLYLQS
Throughout, for % Conversion: test concentration or dose not given here.
Throughout, for Conversion (group heading of the table): test concentration or dose not given here.
Throughout, for Fl (fluorescence without TEV): unit not given here.
Throughout, for Fl after TEV: unit not given here.

B1: tobacco etch virus protease (protein)
chain: GESLFKGPRDYNPISSTICHLTNESDGHTTSLYGIGFGPFIITNKHLFRRNNGTLLVQSLHGVFKVKNTTTLQQHLIDGRDMIIIRMPKDFPPFPQKLKFREPQREERICLVTTNFQTKSMSSMVSDTSCTFPSSDGIFWKHWIQTKDGQCGSPLVSTRDGFIVGIHSASNFTNTNNYFTSVPKNFMELLTNQEAQQWVSGWRLNADSVLWGGHKVFMSKPEEPFQPVKEATQLMNELVYSQ
With B1 the % Conversion (fraction (head says % Conversion)) [1] was 0.77, the “Conversion (group heading of the table)” value [1] was 60%-90% Conversion and the Fl (fluorescence without TEV) [1] was 5050. For the same protein, the Fl after TEV [1] was 1360, the “Conversion (group heading of the table)” value [2] was 60%-90% Conversion and the “Conversion (group heading of the table)” value [3] was 50%-60% Conversion. For the same protein, the “Conversion (group heading of the table)” value [4] was 60%-90% Conversion, the % Conversion (fraction (head says % Conversion)) [5] was 0.734 and the % Conversion (fraction (head says % Conversion)) [6] was 0.549. The % Conversion (fraction (head says % Conversion)) [7] was 0.618, the “Conversion (group heading of the table)” value [8] was 30%-50% conversion and the “Conversion (group heading of the table)” value [9] was 60%-90% Conversion. The “Conversion (group heading of the table)” value [10] was 30%-50% conversion, the “Conversion (group heading of the table)” value [11] was 30%-50% conversion and the “Conversion (group heading of the table)” value [12] was 30%-50% conversion. For the same protein, the % Conversion (fraction (head says % Conversion)) [13] was 0.717, the % Conversion (fraction (head says % Conversion)) [14] was 0.71 and the “Conversion (group heading of the table)” value [14] was 60%-90% Conversion. It also gave a Fl (fluorescence without TEV) [14] of 2990, a Fl after TEV [14] of 1040 and a % Conversion (fraction (head says % Conversion)) [15] of 0.79. For the same protein, the “Conversion (group heading of the table)” value [15] was 60%-90% Conversion, the Fl (fluorescence without TEV) [15] was 5910 and the Fl after TEV [15] was 1420. For the same protein, the “Conversion (group heading of the table)” value [16] was 60%-90% Conversion, the % Conversion (fraction (head says % Conversion)) [17] was 0.72 and the “Conversion (group heading of the table)” value [17] was 60%-90% Conversion. It also gave a Fl (fluorescence without TEV) [17] of 3270, a Fl after TEV [17] of 1080 and a % Conversion (fraction (head says % Conversion)) [18] of 0.517. It also gave a % Conversion (fraction (head says % Conversion)) [19] of 0.863, a % Conversion (fraction (head says % Conversion)) [20] of 0.689 and a % Conversion (fraction (head says % Conversion)) [21] of 0.526. For the same protein, the “Conversion (group heading of the table)” value [22] was 50%-60% Conversion, the “Conversion (group heading of the table)” value [23] was 50%-60% Conversion and the % Conversion (fraction (head says % Conversion)) [24] was 0.87. For the same protein, the Fl (fluorescence without TEV) [24] was 3840, the Fl after TEV [24] was 725 and the “Conversion (group heading of the table)” value [25] was 60%-90% Conversion. The “Conversion (group heading of the table)” value [26] was 60%-90% Conversion, the “Conversion (group heading of the table)” value [27] was 50%-60% Conversion and the “Conversion (group heading of the table)” value [28] was 60%-90% Conversion. For the same protein, the “Conversion (group heading of the table)” value [29] was 60%-90% Conversion, the “Conversion (group heading of the table)” value [30] was 50%-60% Conversion and the “Conversion (group heading of the table)” value [31] was 60%-90% Conversion. The % Conversion (fraction (head says % Conversion)) [32] was 0.71, the “Conversion (group heading of the table)” value [32] was 60%-90% Conversion and the Fl (fluorescence without TEV) [32] was 4810. For the same protein, the Fl after TEV [32] was 1550, the “Conversion (group heading of the table)” value [33] was 50%-60% Conversion and the “Conversion (group heading of the table)” value [34] was 50%-60% Conversion. The % Conversion (fraction (head says % Conversion)) [35] was 0.918, the % Conversion (fraction (head says % Conversion)) [36] was 0.61 and the “Conversion (group heading of the table)” value [37] was 60%-90% Conversion. The “Conversion (group heading of the table)” value [38] was 30%-50% conversion, the % Conversion (fraction (head says % Conversion)) [39] was 0.922 and the “Conversion (group heading of the table)” value [40] was 30%-50% conversion. The “Conversion (group heading of the table)” value [41] was 60%-90% Conversion, the % Conversion (fraction (head says % Conversion)) [42] was 0.81 and the “Conversion (group heading of the table)” value [42] was 60%-90% Conversion. The Fl (fluorescence without TEV) [42] was 6110, the Fl after TEV [42] was 1380 and the % Conversion (fraction (head says % Conversion)) [43] was 0.73. For the same protein, the “Conversion (group heading of the table)” value [43] was 60%-90% Conversion, the Fl (fluorescence without TEV) [43] was 3970 and the Fl after TEV [43] was 1250. The “Conversion (group heading of the table)” value [44] was 60%-90% Conversion, the “Conversion (group heading of the table)” value [45] was 30%-50% conversion and the % Conversion (fraction (head says % Conversion)) [46] was 0.588. For the same protein, the “Conversion (group heading of the table)” value [47] was 30%-50% conversion, the “Conversion (group heading of the table)” value [48] was 30%-50% conversion and the % Conversion (fraction (head says % Conversion)) [49] was 0.664. For the same protein, the % Conversion (fraction (head says % Conversion)) [50] was 0.76, the “Conversion (group heading of the table)” value [50] was 60%-90% Conversion and the Fl (fluorescence without TEV) [50] was 3250. For the same protein, the Fl after TEV [50] was 980, the “Conversion (group heading of the table)” value [51] was 50%-60% Conversion and the “Conversion (group heading of the table)” value [52] was 60%-90% Conversion. For the same protein, the “Conversion (group heading of the table)” value [53] was 30%-50% conversion, the “Conversion (group heading of the table)” value [54] was 50%-60% Conversion and the “Conversion (group heading of the table)” value [55] was 30%-50% conversion. The “Conversion (group heading of the table)” value [56] was 60%-90% Conversion, the % Conversion (fraction (head says % Conversion)) [57] was 0.68 and the “Conversion (group heading of the table)” value [58] was 60%-90% Conversion. For the same protein, the “Conversion (group heading of the table)” value [59] was 50%-60% Conversion, the “Conversion (group heading of the table)” value [60] was 60%-90% Conversion and the “Conversion (group heading of the table)” value [61] was 60%-90% Conversion. The “Conversion (group heading of the table)” value [62] was 30%-50% conversion and the % Conversion (fraction (head says % Conversion)) [63] was 0.854.

Reference: patent publication US20070065878A1
